# Assay results as given in patent publication US20140170144A1 (CELLMID, published 2014).
# T1: recombinant human midkine (MK17) (Homo sapiens, UniProt P21741 23-143)
# T1 construct: The signal is left out; It gives a molecular weight of 13.4 kDa; also called human MK; MK17 protein
# T1 sequence: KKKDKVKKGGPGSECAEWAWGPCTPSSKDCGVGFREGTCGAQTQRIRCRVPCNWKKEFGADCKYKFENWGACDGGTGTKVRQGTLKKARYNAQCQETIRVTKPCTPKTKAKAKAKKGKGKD
# Target: T1, recombinant human midkine (MK17)
# Assay: SPR (Biacore), antibody amine coupled to CM-4 chip, midkine 0-20 nM as analyte
# Description: Antibody IP-13 (2.85 mg/ml) was diluted to 5.7 μg/ml in Biacore acetate pH 4.5 buffer and amine coupled to of flow cell (FC) #3 of a CM-4 chip. Approximately 750 units were aimed to be immobilized onto Flow cells (FC) #3 of the CM-4 chip; and FC#1 was blocked using EDC/NHS followed by ethanolamine and was used as reference during the study.
# Recombinant human midkine was diluted to 15 μM (1 μl of 10 mg/ml in 50 μl of HBS-EP buffer, the calculation was based on molecular weight of 13.4 kDa). Various dilutions of human midkine using HBS-EP buffer were prepared (0, 1, 2, 3, 4, 5, 10 and 20 nM).
binder,measurement,value
"monoclonal antibody IP-13 (antibody, V domains shown, also called mAb IP-13) VH: EVQLQQSGPELVKPGASVKIPCKASGYTFTDYNMGWVKQSHGKSLEWIGDINPNNGGTIYNQKFKGKATLTVDKSSSTAYMELRSLTSEDTAVYYCARWSYSNPYFDYWGQGTTLTVSS VL: SIVMTQTPNFLLVSAGDRVTITCKASQSVSNDVSWYQQKPGQSPKLLIYYASNLYTGVPDRFTGSGYGTDFTFTISTVQAEDLAVYFCQQDYSSPWTFGGGTKLEIK",Ka,5e+08 M⁻¹
same,Kd,2.02 nM
same,koff,0.0028 s⁻¹
same,kon,1.4e+06 M⁻¹ s⁻¹
